From the Human Domainome abundance scans (Beltran et al. 2025)
± gives the uncertainty stated by the source.

B1: Membrane-associated guanylate kinase, WW and PDZ domain-containing protein 1, residues 352 to 401; numbered along this chain, Q96QZ7 (parent)
chain: TEELDSELELPAGWEKIEDPVYGIYYVDHINRKTQYENPVLEAKRKKQLE

Variants of: B1
Experiment: abundance fitness (aPCA) (normalised: wild type 0, dead -1); higher = more abundant; growth selection in yeast, the domain comes from the species named
Conditions: Homo sapiens

Abundance fitness: each site, then its substitutions
Q35: I -0.571 ± 0.2; H -0.588 ± 0.18; T 0.009 ± 0.078; G -0.487 ± 0.041; M -0.18 ± 0.078; R -0.334 ± 0.051; C -0.338 ± 0.095; E -0.373 ± 0.055
G23: W -0.8 ± 0.052; E -0.801 ± 0.12; V -1.2 ± 0.11; Q -1.34 ± 0.1; D -0.884 ± 0.093; H -0.822 ± 0.26; C -1.08 ± 0.21; N -0.822 ± 0.14; A -1.1 ± 0.083; P -0.958 ± 0.14; L -1.13 ± 0.059; F -0.826 ± 0.3; S -0.79 ± 0.052; K -0.762 ± 0.079; R -0.56 ± 0.048; M -0.9 ± 0.17
Y26: S -0.337 ± 0.065; N -0.54 ± 0.16; E -0.213 ± 0.054; F -0.137 ± 0.071; K -0.563 ± 0.056; R -0.549 ± 0.047; P -0.404 ± 0.052; G -0.395 ± 0.055; V -0.668 ± 0.05; T -0.457 ± 0.1; A -0.321 ± 0.044; W -0.257 ± 0.055; M -0.552 ± 0.08; I -0.982 ± 0.15; Q -0.385 ± 0.069; L -0.741 ± 0.074
D19: G -0.596 ± 0.044; S -0.163 ± 0.063; C -0.015 ± 0.044; K -0.579 ± 0.2; I -0.633 ± 0.05; N -0.611 ± 0.16; H -0.114 ± 0.094; M -0.845 ± 0.068; Y -0.861 ± 0.078; A -0.551 ± 0.086; L -0.985 ± 0.11; W -1.03 ± 0.085; R -0.855 ± 0.085; Q -0.66 ± 0.051
N38: F -0.058 ± 0.062; M -0.116 ± 0.064; K -0.444 ± 0.1; G -0.45 ± 0.059; I -0.61 ± 0.2; E -0.254 ± 0.084; L -0.271 ± 0.044; D -0.158 ± 0.064; C -0.747 ± 0.051; P -0.481 ± 0.1; A -0.146 ± 0.059; H 0.171 ± 0.057
V21: S -0.165 ± 0.063; R -0.012 ± 0.049; A 0.097 ± 0.058; H -0.232 ± 0.13; G -0.307 ± 0.057; L 0.026 ± 0.043; F 0.041 ± 0.12; M -0.517 ± 0.12; K 0.012 ± 0.095; C -0.038 ± 0.058; E 0.063 ± 0.081; T 0.081 ± 0.058; N -0.056 ± 0.072; I -0.034 ± 0.098; W -0.241 ± 0.075; Y -0.162 ± 0.063; P -0.322 ± 0.056; Q -0.008 ± 0.099
E18: N -0.03 ± 0.097; H -0.094 ± 0.086; P -0.549 ± 0.13; S -0.33 ± 0.081; M -0.231 ± 0.054; K -0.269 ± 0.12; L -0.311 ± 0.062; T 0.001 ± 0.08; I -0.196 ± 0.11; Q -0.794 ± 0.45; R -0.461 ± 0.039; W -0.745 ± 0.12; Y -0.39 ± 0.13; V -0.1 ± 0.068; G -0.459 ± 0.047
D28: Q -0.934 ± 0.14; E -0.696 ± 0.065; H -0.634 ± 0.048; K -0.764 ± 0.13; M -1.14 ± 0.15; G -1.07 ± 0.065; V -1.24 ± 0.067; P -0.855 ± 0.14; F -1.12 ± 0.27; N -0.303 ± 0.086; A -1.16 ± 0.095; R -1.09 ± 0.059; C -1 ± 0.066; Y -0.861 ± 0.24
P20: E -0.426 ± 0.33; M -0.314 ± 0.081; W -0.339 ± 0.35
R32: I -0.387 ± 0.11; D 0.067 ± 0.087; A -0.249 ± 0.044; P -0.564 ± 0.045; F -0.431 ± 0.063; C -0.168 ± 0.07; K -0.061 ± 0.083; W -0.519 ± 0.053; G -0.013 ± 0.039; T -0.607 ± 0.093; E 0.002 ± 0.055; V -0.333 ± 0.042; S -0.119 ± 0.041; L -0.119 ± 0.055; H 0.125 ± 0.1
Y22: P -0.24 ± 0.094; E -0.004 ± 0.06; D -0.078 ± 0.069; T -0.159 ± 0.091; V -0.051 ± 0.063; G -0.027 ± 0.051; K 0.082 ± 0.055; C -0.061 ± 0.055; A -0.041 ± 0.068; S -0.035 ± 0.043; M -0.378 ± 0.099; R 0.056 ± 0.042; F -0.122 ± 0.06; Q -0.156 ± 0.11; N -0.199 ± 0.12; I -0.162 ± 0.092; H 0.1 ± 0.11; W -0.186 ± 0.077
Y25: F -0.148 ± 0.07; A -0.278 ± 0.047; L -0.593 ± 0.053; S -0.119 ± 0.044; D -0.333 ± 0.085; T -0.266 ± 0.061; M -0.033 ± 0.075; N -0.447 ± 0.077; Q -0.14 ± 0.073; H -0.192 ± 0.092; E -0.26 ± 0.082; P -0.367 ± 0.077; K 0.007 ± 0.083; C -0.251 ± 0.069; W -0.361 ± 0.061; G -0.299 ± 0.041; V -0.079 ± 0.054; I -0.053 ± 0.09
